Like-named read-outs stand apart in the source and are kept apart here.
Assays:
[1] = tested on: PC-9 non-small cell lung cancer cells; test: PC-9 subcutaneous tumors in NSG mice, daily erlotinib; assay type: in vivo; settings: erlotinib alone, 25 mg/kg orally daily; day 20
Method: (§1) 5×10exp6 PC-9 non-small cell lung cancer cells were injected subcutaneously in Nod scid gamma (NSG) mice. […] Erlotinib in 6% captisol was dosed orally daily at 25 mg/kg; IGFBP3Fc (3(del3)3) was dosed intraperitoneally at 25 mg/kg three times per week; control animals were administered vehicle. Dosing was started on day 11; erlotinib and erlotinib plus D3 was discontinued on day 19; D3 injections were discontinued on day 22.

[2] = tested on: PC-9 tumors; test: PC-9 subcutaneous tumors in mice, low dose erlotinib; assay type: in vivo; settings: erlotinib 25 mg/kg 3 times per week; FIG. 27
Method: as §1
Subcutaneous PC-9 tumors were generated and measured as above. Chimera D3 was dosed as above; erlotinib was dosed at 25 mg/kg 3 times per week in order to examine the effect of the chimera D3 on the tumor growth with suboptimal erlotinib dosing. The treatment started on day 8 and ended on day 22.

[3] = tested on: hep3B cells; test: hep3B proliferation assay; assay type: cell-based, human; settings: for IC50: Homo sapiens, Hep3B, FIG. 15, read-out: IC50 of erlotinib to EGFR-wildtype hep3B cells
Method: (§2) For the proliferation assay, cells except for HUVEC were seeded at a density of 1,000 to 6,000 in 96 wells in an assay buffer of DMEM/F12 plus 0.2% BSA and 10 ug/ml transferrin. Chemical inhibitors were added after 16-20 hours after plating; IGF-1 or other growth factors or test chimeras in assay buffer were added at the time of plating or 16-20 hours after plating. 5,000 HUVEC ells were plated in poly-L-lysine coated 96 wells in M199 with 1%/FBS and HEPES. After 3 to 4 days of culture, growth was determined by incubating cells with Alamar blue for 4 to 6 hours and then the fluorescence (RFU) at 544/590 nm was read. For long term proliferation assays, cells were plated in the growth media with 5% or 10% FBS at densities of 500 to 10,000 cells per cm^2 growth area and grown for 7 to 21 days. Inhibitors and effectors were added 1-4 days after plating. Cells were exposed to cisplatin or gemcitabine for two days. Medium was renewed twice weekly. At completion, cells were fixed and then stained with Giemsa.
The human hepatoma cell line hep3B could be stimulated by many growth factors including IGF-1, IGF-2, HGF, bFGF, VEGF, and neuregulin.

[4] = tested on: HUVEC cells; test: HUVEC proliferation assay; assay type: cell-based; settings: for inhibition of VEGF-induced proliferation of HUVEC cells: FIG. 6, FIG. 13
Method: (§3) MCF-7 cells (a breast cancer cell line) were maintained in MEM (GIBCO) plus insulin and NEAA and 10% FBS (Hyclone).
as §2
Growth factor synergism can also be observed in the proliferation of HUVEC cells.

[5] = tested on: MCF-7 breast cancer cells; test: MCF-7 proliferation assay; assay type: cell-based; settings: FIG. 5
Method: as §3, §2
We next examined the effect of 56662 (BP3/Fc) on the proliferation induced by growth factors that interacted with the IGFBP3. The proliferation of MCF-7 breast cancer cells was induced in serum-free medium by individual growth factors like IGF-1, IGF-2, EGF, TGF-a, Nrgbx, b-FGF, and amphiregulin (FIG. 1).

[6] = tested on: IGF-1 and VEGF; test: Competition binding ELISA with biotinylated IGF-1 or biotinylated VEGF; settings: competitive inhibition data, FIG. 8 and FIG. 9
Method: (§4) Plates were coated with goat anti-human Fc antibody, blocked and then incubated with chimera as in the Fc ELISA. Biotinylated IGF-1 (GroPep) or VEGF-Biotin (R&D Systems VEGF biotinylated with sulfo-NHS-LC-biotin as per instructions (Pierce) was added for 2 hours followed by streptavidin-HRP (Jackson Immunoresearch) for 30 minutes. Chromogenic development with tetramethyl benzidine was performed as described above.
ELISA plates were coated with 0.5 μg/ml growth factor (IGF-1, IGF-2, VEGF, etc.) in PBS overnight and blocked as described above. After overnight incubation with chimera, chimera binding was detected with anti-human Fc-HRP and development with tetramethyl benzidine as described above.
Binding specificity was also studied by competition binding assays using biotinylated IGF-1 (IGF-1-bio) or biotinylated VEGF (VEGF-bio) in the growth factor ELISA assay.

[7] = biological target: T1, nrgECD (amino acids Ser2-Lys246 of neuregulin beta 1) (Homo sapiens, UniProt Q02297); test: Biacore binding to nrgECD; settings: immobilized nrgECD
T1 construct: Ser2-Lys246 of neuregulin beta 1; purchased R&D Sciences or SinoBiologicals
T1 sequence (Q02297 2-246 isoform Q02297-6): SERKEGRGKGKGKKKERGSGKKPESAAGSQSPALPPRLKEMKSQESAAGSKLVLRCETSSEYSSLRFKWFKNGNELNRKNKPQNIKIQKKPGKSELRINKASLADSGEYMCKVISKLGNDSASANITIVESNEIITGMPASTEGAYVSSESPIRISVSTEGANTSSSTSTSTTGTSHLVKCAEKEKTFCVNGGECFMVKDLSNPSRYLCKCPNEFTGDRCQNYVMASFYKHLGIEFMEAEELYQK
Method: (§5) Biacore binding was performed at David Myszka's laboratory at the University of Utah or at the Genomic Research Center at Academia Sinica. Surfaces of binding protein chimera were made via chemical immobilization on a CM4 chip using standard amine coupling chemistry. […] Excess surface carboxyl activated sites on all four flow cells was blocked using the doubly positively charged species ethylenediamine. Binding experiments (but not immobilizations) in HBS-P (10 mM HEPES pH 7.4, 150 mM NaCl, 0.05% P20), The HBS-P was supplemented with BSA at 0.2 mg/mL, or HBS-P was supplemented with 500 mM NaCl (650 mM NaCl, final concentration). Analytes were also reconstituted in the corresponding buffer. All experiments were performed at 25° C. 1/150 dilutions of phosphoric acid were used to regenerate IGFBP3-Fc surfaces and a sequence of 3 M MgCl2 followed by 5 M GuCl was used to regenerate surfaces immobilized with growth factor. Dissociation constants reported below used immobilized binding protein unless noted. Differences between binding constants may be expected between growth factor immobilization and chimera immobilization.
(§6) In this example, erbB4 domain 1 was attached to the N-terminus of the recombinant IGFBP3-Fc or the recombinant IGFBP3-v1v2-Fc.

[8] = biological target: T2, nrgEGF (amino acids Thr176-Lys246 of neuregulin-beta 1) (Homo sapiens, UniProt Q02297); test: Biacore binding to nrgEGF
T2 construct: Thr176-Lys246 of neuregulin-beta 1; purchased R&D Sciences or SinoBiologicals
T2 sequence (Q02297 176-246 isoform Q02297-6): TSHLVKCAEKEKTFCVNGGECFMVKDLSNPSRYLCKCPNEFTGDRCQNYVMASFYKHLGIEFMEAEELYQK
Method: as §5, §6

[9] = biological target: T3, VEGF (Homo sapiens, UniProt P15692); test: Stability: VEGF binding remaining after overnight incubation; assay type: physicochemical; settings: experiment 3-192
T3 construct: purchased R&D Systems
T3 sequence (P15692 27-191 isoform P15692-4): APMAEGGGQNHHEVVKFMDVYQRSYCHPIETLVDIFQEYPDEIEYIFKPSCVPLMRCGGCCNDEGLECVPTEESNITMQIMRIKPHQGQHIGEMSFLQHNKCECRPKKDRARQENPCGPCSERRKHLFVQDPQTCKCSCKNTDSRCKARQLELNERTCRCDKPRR
Method: as §4
To test the stability of the present chimeras, some purified chimeras (see, Table 4) were incubated with PBS or a conditioned medium from the MCF-7 cell line overnight at 37° C. and PBS overnight at 4° C. The IGF-1 binding and VEGF binding were measured using the biotinylated IGF-1 and VEGF.

## C#Cc1cccc(Nc2ncnc3cc(OCCOC)c(OCCOC)cc23)c1 [erlotinib, reference compound]
[1]
  tumor volume of treated to control (T/C): 38%
[2]
  tumor regression with intermittent dosing: did not cause the tumor regression
[3]; cells not treated with chimera h3t33Fc
  IC50: ~10000 nM
[3]; with the addition of 100 nM chimera h3t33Fc
  IC50: ~100 nM

B1: chimera A: IGFBP3 with IGFBP3 linker deletion 1-gly 3 linker-v1v2-Fc, SEQ ID NO: 14 (protein)
chain: MSEVPVARVWLVLLLLTVQVGVTAGGASSAGLGPVVRCEPCDARALAQCAPPPAVCAELVREPGCGCCLTCALSEGQPCGIYTERCGSGLRCQPSPDEARPLQALLDGRGLCVNASAVSKGHAKDSQRYKVDYESQSTDTQNFSSESKRETEYGPCRREMEDTLNHLKFLNVLSPRGVHIPNCDKKGFYKKKQCRPSKGRKRGFCWCVDKYGQPLPGYTTKGKEDVHCYSMQSKAPPAPGNASESEEDRSAGIYIFISDTGRPFVEMYSEIPEIIHMTEGRELVIPCRVTSPNITVTLKKFPLDTLIPDGKRIIWDSRKGFIISNATYKEIGLLTCEATVNGHLYKTNYLTHRQGYRIYDVVLSPSHGIELSVGEKLVLNCTARTELNVGIDFNWEYPSSKHQHKKLVNRDLKTQSGSEMKKFLSTLTIDGVTRSDQGLYTCAASSGLMTKKNSTFVRVHEKVECPPCPAPPVAGPSVFLFPPKPKDQLMISRTPEVTCVVVDVSHEDPEVKFNWYVDGVEVHNAKTKPREEQYNSTYRVVSVLTVLHQDWLNGKEYKCKVSNKGLPSSIEKTISKAKGQPREPQVYTLPPSREEMTKNQVSLTCLVKGFYPSDIAVEWESNGQPENNYKTTPPVLDSDGSFFLYSKLTVDKSRWQQGNVFSCSVMHEGLHNHYTQKSLSLSPGK
[4]
  inhibition of VEGF-induced proliferation of HUVEC cells: potent inhibition
[4]; FIG. 14
  inhibition of HUVEC proliferation stimulated by IGF-1, bFGF, HGF, VEGF, and combinations: inhibited
[5]
  inhibition of IGF-1-induced proliferation of MCF-7, compared to 56662 and chimera B: a smaller EC50 and a higher maximal inhibition
[6]
  simultaneous binding of IGF and VEGF: could bind simultaneously
[3]; FIG. 22A
  rescue by HGF, bFGF, or IGF in hep3b cells treated with erlotinib: decreased the rescue

B2: IGFBP3-erbB4-Fc: ErbB4-GS-IGFBP3-gly 3 linker-Fc, SEQ ID NO: 22 (protein)
chain: MSEVPVARVWLVLLLLTVQVGVTAGVQPSDSQSVCAGTENKLSSLSDLEQQYRALRKYYENCEVVMGNLEITSIEHNRDLSFLRSVREVTGYVLVALNQFRYLPLENLRIIRGTKLYEDRYALAIFLNYRKDGNFGLQELGLKNLTEILNGGVYVDQNKFLCYADTIHWQDIVRNPWPSNLTLVSTNGSSGCGRCHKSCTGRCWGPTENHCQTLTRTVGGGGSGGGGSGGGGSGGGGSGGGGGASSAGLGPVVRCEPCDARALAQCAPPPAVCAELVREPGCGCCLTCALSEGQPCGIYTERCGSGLRCQPSPDEARPLQALLDGRGLCVNASAVSKGHAKDSQRYKVDYESQSTDTQNFSSESKRETEYGPCRREMEDTLNHLKFLNVLSPRGVHIPNCDKKGFYKKKQCRPSKGRKRGFCWCVDKYGQPLPGYTTKGKEDVHCYSMQSKVECPPCPAPPVAGPSVFLFPPKPKDQLMISRTPEVTCVVVDVSHEDPEVKFNWYVDGVEVHNAKTKPREEQYNSTYRVVSVLTVLHQDWLNGKEYKCKVSNKGLPSSIEKTISKAKGQPREPQVYTLPPSREEMTKNQVSLTCLVKGFYPSDIAVEWESNGQPENNYKTTPPVLDSDGSFFLYSKLTVDKSRWQQGNVFSCSVMHEGLHNHYTQKSLSLSPGK
[7]
  Kd: 0.004 nM
[8]
  Kd: 6 nM

B3: Chimera B: IGFBP3 with IGFBP3 linker deletion 1-GS 16 linker-v1v2-Fc, SEQ ID NO: 19 (protein)
chain: MSEVPVARVWLVLLLLTVQVGVTAGGASSAGLGPVVRCEPCDARALAQCAPPPAVCAELVREPGCGCCLTCALSEGQPCGIYTERCGSGLRCQPSPDEARPLQALLDGRGLCVNASAVSKGHAKDSQRYKVDYESQSTDTQNFSSESKRETEYGPCRREMEDTLNHLKFLNVLSPRGVHIPNCDKKGFYKKKQCRPSKGRKRGFCWCVDKYGQPLPGYTTKGKEDVHCYSMQSKGGGGSGGGGSGGGGSGIYIFISDTGRPFVEMYSEIPEIIHMTEGRELVIPCRVTSPNITVTLKKFPLDTLIPDGKRIIWDSRKGFIISNATYKEIGLLTCEATVNGHLYKTNYLTHRQGYRIYDVVLSPSHGIELSVGEKLVLNCTARTELNVGIDFNWEYPSSKHQHKKLVNRDLKTQSGSEMKKFLSTLTIDGVTRSDQGLYTCAASSGLMTKKNSTFVRVHEKVECPPCPAPPVAGPSVFLFPPKPKDQLMISRTPEVTCVVVDVSHEDPEVKFNWYVDGVEVHNAKTKPREEQYNSTYRVVSVLTVLHQDWLNGKEYKCKVSNKGLPSSIEKTISKAKGQPREPQVYTLPPSREEMTKNQVSLTCLVKGFYPSDIAVEWESNGQPENNYKTTPPVLDSDGSFFLYSKLTVDKSRWQQGNVFSCSVMHEGLHNHYTQKSLSLSPGK
[9]; MCF-7 conditioned medium overnight at 37° C.
  VEGF binding remaining over control, mcf7: 73%
[9]; PBS overnight at 37° C.
  VEGF binding remaining over control, 37 con: 101%
[4]
  inhibition of VEGF-induced proliferation of HUVEC cells: potent inhibition
